What was measured:
non-diseased rat BAL = conditions: cited from earlier work
[1] = human, in vivo; cited from earlier work
human patients = conditions: in vivo; cited from earlier work
mdx mice = conditions: cited from earlier work
[2] = system: MBT2 tumors, intratumoral immune cells; experiment: MBT2 tumor immune contexture (flow cytometry, IHC, qPCR); conditions: mouse, in vivo
Source text: To study the immune effects of anti-PD-1 or AB6-mIgG1 treatment as single agents or in combination, MBT-2 tumors were harvested from mice 10 days after treatment initiation and then subjected to immunohistochemical and flow cytometry analyses of select immune cell markers. […] The relevance of this increase in Treg cells is unclear given the significant anti-tumor effects observed with combination treatment. […] This appears to be due to selective reduction in CD11b+CD206+ and CD11b+Gr1+ subpopulations, which correspond to immunosuppressive M2-like macrophages and myeloid-derived suppressor cells (MDSC), respectively. Collectively, the representation of these two populations of cells is reduced from an average of 47% of the CD45+ cell population to 14% after combination treatment (FIG. 34B).
Each study group contained 12 mice with MBT2 tumors as described herein. Ab6-treatment group received the antibody weekly, on day 1 and day 8, at 10 mg/kg. […]
Tumor-associated immune cell subsets were also analyzed by tumor flow cytometry in MBT-2 tumors. […] Flow cytometry was performed on a Attune NxT (ThermoFisher) and analyzed with FlowJo (BD Bioscience).
For immunohistochemical analysis, tumors from six animals were cut in halves and fixed. […] FIG. 36E provides the quantitation of the IHC data, shown as % of CD8-positive cells of total nuclei. […]

c1ccc(-c2nn3c(c2-c2ccnc4cc(OCCN5CCOCC5)ccc24)CCC3)nc1 [LY2109761]
TGFβ downstream tonic signaling (non-diseased rat BAL): inhibit TGFβ downstream tonic signaling

GC1008: human analog of 1D11; pan-TGFβ antibody
Exposure: DN Cmax [1]: DN Cmax ~(350 ng/mL)mg (ng/mL)mg | Exposure: Half life [1]: Half life: 21.7 d | previously reported adverse events (human patients): leukocytosis (grade 3), fatigue (grade 3), hypoxia (grade 3), asystole (grade 5), leukopenia (grade 1), recurrent, transient, tender erythematous, nodular skin lesions, suppurative dermatitis, and herpes zoster

B1: decorin: proteoglycan abundant in skeletal muscle that inhibits TGFβ activity (protein, UniProt P07585 31-359, looked up)
Decorin: DEASGIGPEVPDDRDFEPSLGPVCPFRCQCHLRVVQCSDLGLDKVPKDLPPDTTLLDLQNNKITEIKDGDFKNLKNLHALILVNNKISKVSPGAFTPLVKLERLYLSKNQLKELPEKMPKTLQELRAHENEITKVRKVTFNGLNQMIVIELGTNPLKSSGIENGAFQGMKKLSYIRIADTNITSIPQGLPPSLTELHLDGNKISRVDAASLKGLNNLAKLGLSFNSISAVDNGSLANTPHLRELHLDNNKLTRVPGGLAEHKYIQVVYLHNNNISVVGSSDFCPPGHNTKKASYSGVSLFSNPVQYWEIQPSTFRCVYVRSAIQLGNYK
muscle fibrosis (mdx mice): decreases muscle fibrosis

B2: Ab6-mIgG1: chimeric antibody with the human V domains of Ab6 fused to mouse IgG1/kappa constant domains (protein)
heavy chain: EVQLVESGGGLVQPGGSLRLSCTASGFTFSSFSMDWVRQAPGKGLEWVSYISPSADTIYYADSVKGRFTISRDNAKNTLYLQMNSLRAEDTAVYYCARGVLDYGDMLMPWGQGTLVTVSS
light chain: DIQMTQSPSSLSASVGDRVTITCQASQDITNYLNWYQQKPGKAPKLLIYDASNLETGVPSRFSGSGSGTDFTFTISSLQPEDIATYYCQQADNHPPWTFGGGTKVEIK
phospho-Smad3 staining at tumor vascular endothelium (IHC) [2]: much diminished
